From paper PMC4067995

Molecular target: V1 (A3B3DF), the soluble subcomplex of TtATPase without peripheral stalks (Thermus thermophilus strain HB8) (UniProt Q56403)
Assay: native MS

V1 (A3B3DF), the soluble subcomplex of TtATPase without peripheral stalks (Thermus thermophilus strain HB8), sequence (Q56403 whole entry, chain 1 of 4): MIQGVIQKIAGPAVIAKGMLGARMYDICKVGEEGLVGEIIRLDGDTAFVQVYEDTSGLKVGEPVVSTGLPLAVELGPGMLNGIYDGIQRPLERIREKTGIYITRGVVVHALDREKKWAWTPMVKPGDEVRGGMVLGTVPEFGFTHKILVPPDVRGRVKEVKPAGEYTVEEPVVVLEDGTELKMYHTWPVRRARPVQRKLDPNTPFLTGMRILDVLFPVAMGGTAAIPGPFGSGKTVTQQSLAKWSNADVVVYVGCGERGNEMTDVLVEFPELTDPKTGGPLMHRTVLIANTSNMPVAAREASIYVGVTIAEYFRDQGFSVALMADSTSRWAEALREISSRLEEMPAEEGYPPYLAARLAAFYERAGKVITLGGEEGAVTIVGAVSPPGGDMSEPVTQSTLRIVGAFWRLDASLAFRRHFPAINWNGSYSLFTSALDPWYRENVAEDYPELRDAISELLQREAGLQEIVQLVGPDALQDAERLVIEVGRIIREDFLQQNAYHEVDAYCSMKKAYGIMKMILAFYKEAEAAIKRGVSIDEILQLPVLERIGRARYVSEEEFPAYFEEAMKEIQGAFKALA
V1 (A3B3DF), the soluble subcomplex of TtATPase without peripheral stalks (Thermus thermophilus strain HB8), sequence (Q56404 whole entry, chain 2 of 4, further chain): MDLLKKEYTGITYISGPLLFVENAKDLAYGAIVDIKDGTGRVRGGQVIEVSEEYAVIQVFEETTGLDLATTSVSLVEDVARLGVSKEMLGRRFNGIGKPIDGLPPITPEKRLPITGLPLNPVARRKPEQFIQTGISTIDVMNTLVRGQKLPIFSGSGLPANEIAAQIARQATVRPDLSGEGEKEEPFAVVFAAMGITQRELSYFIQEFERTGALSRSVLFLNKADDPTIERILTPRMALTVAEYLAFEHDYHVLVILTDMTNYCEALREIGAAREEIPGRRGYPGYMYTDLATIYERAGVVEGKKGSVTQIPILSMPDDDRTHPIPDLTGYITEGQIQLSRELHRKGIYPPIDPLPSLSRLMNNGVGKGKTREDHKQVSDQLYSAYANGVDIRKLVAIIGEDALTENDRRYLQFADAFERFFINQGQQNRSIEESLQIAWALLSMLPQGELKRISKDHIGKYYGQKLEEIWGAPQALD
V1 (A3B3DF), the soluble subcomplex of TtATPase without peripheral stalks (Thermus thermophilus strain HB8), sequence (O87880 whole entry, chain 3 of 4, further chain): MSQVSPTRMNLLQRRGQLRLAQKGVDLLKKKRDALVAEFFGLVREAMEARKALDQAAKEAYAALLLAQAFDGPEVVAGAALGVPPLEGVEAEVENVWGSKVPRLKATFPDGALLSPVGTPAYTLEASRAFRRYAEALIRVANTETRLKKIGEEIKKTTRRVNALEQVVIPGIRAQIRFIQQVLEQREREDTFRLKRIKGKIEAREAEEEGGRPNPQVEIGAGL
V1 (A3B3DF), the soluble subcomplex of TtATPase without peripheral stalks (Thermus thermophilus strain HB8), sequence (P74903 whole entry, chain 4 of 4, further chain): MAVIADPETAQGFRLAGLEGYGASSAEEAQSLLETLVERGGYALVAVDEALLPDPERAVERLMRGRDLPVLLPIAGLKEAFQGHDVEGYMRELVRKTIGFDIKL

- stoichiometry N: 2
Substance: peripheral EG stalk of TtATPase (from UniProt P74901 1-188) (complex)
